PMC11427689, “Antagonistic nanobodies implicate mechanism of GSDMD pore formation and potential therapeutic application” (Nature Communications, 2024)

B1: VHH_(GSDMD-1) with C-terminal HA-His6 (VHH)
VHH: QVQLVESGGALVQPGGSLRLSCSASGFTFSKYLMSWYRQAPGKERELVATITTAGGNTNYADSVKGRFTISRDNAKNTVYLQMNSLKPEDTAVYYCKASGGTIRTVNETYWGQGTQVTVSS
notes: pHEN6-based periplasmic expression vector, small scale (HA-His6); also called HA-His-tagged nanobody; source: E. coli WK6, periplasmic extract, purified (Ni-NTA, desalting); not shown: HA, C-terminal, kept; His6, C-terminal, kept
B2: VHH_(GSDMD-1) with a C-terminal HA tag, expressed in THP-1 cells (VHH)
VHH: QVQLVESGGALVQPGGSLRLSCSASGFTFSKYLMSWYRQAPGKERELVATITTAGGNTNYADSVKGRFTISRDNAKNTVYLQMNSLKPEDTAVYYCKASGGTIRTVNETYWGQGTQVTVSS
notes: Same nanobody as m2 and m11, other vector and host; also called VHH_(GSDMD-1)-HA; source: THP-1, lentiviral transduction, constitutive expression (pEF1α), in lysate; not shown: HA, C-terminal, kept
B3: VHH_(GSDMD-1)-HA (VHH)
VHH: QVQLVESGGALVQPGGSLRLSCSASGFTFSKYLMSWYRQAPGKERELVATITTAGGNTNYADSVKGRFTISRDNAKNTVYLQMNSLKPEDTAVYYCKASGGTIRTVNETYWGQGTQVTVSS
notes: also called VHH-HA; source: HEK293T, transfected (pCAGGS VHH-HA), in lysate; not shown: HA, C-terminal, kept
B4: VHH_(GSDMD-3) with C-terminal HA-His6 (VHH)
VHH: QVQLVETGGGLVQPGGSLRLSCAASGFTLDIYNMGWFRQAPGKEREGVSCISSRYGTSTYYADSVKGRFTISRDNAKNTVYLQMNNLKPEDTAVYYCATVSWRFTTNQDVCLTPSVSGYWGQGTQVTVSS
notes: as for B1
B5: VHH_(GSDMD-3)-HA (VHH)
VHH: QVQLVETGGGLVQPGGSLRLSCAASGFTLDIYNMGWFRQAPGKEREGVSCISSRYGTSTYYADSVKGRFTISRDNAKNTVYLQMNNLKPEDTAVYYCATVSWRFTTNQDVCLTPSVSGYWGQGTQVTVSS
notes: as for B3
B6: VHH_(GSDMD-6) with C-terminal HA-His6 (VHH)
VHH: QVQLVETGGGLVQPGGSLRLSCTASGFIFSANQMNWVRQAPGKGLEWLSGISTRGDTTSYADSVKGRFTISRDNAKNTLYLQMNSLQPDDTAVYFCARVCIRGPEPKLRCDDWGQGTQVTVSS
notes: as for B1
B7: VHH_(GSDMD-2) with a C-terminal HA tag, expressed in THP-1 cells (VHH)
VHH: QVQLVESGGGLVQPGGSLRLSCVDSRSWINVYGANWYRQAPGKERELVAALTSGGTTNYADSVKGRFTISRDNAKNTVYLQMRDLKPEDTAVYYCNLERYTGSSVYPWGQGTQVTVSS
notes: Same nanobody as m3 and m12, other vector and host; also called VHH_(GSDMD-2)-HA; source: THP-1, lentiviral transduction, constitutive expression (pEF1α), in lysate; not shown: HA, C-terminal, kept
B8: VHH_(GSDMD-2)-HA (VHH)
VHH: QVQLVESGGGLVQPGGSLRLSCVDSRSWINVYGANWYRQAPGKERELVAALTSGGTTNYADSVKGRFTISRDNAKNTVYLQMRDLKPEDTAVYYCNLERYTGSSVYPWGQGTQVTVSS
notes: as for B3
B9: VHH_(GSDMD-2) with C-terminal HA-His6 (VHH)
VHH: QVQLVESGGGLVQPGGSLRLSCVDSRSWINVYGANWYRQAPGKERELVAALTSGGTTNYADSVKGRFTISRDNAKNTVYLQMRDLKPEDTAVYYCNLERYTGSSVYPWGQGTQVTVSS
notes: as for B1
B10: VHH_(GSDMD-5)-HA (VHH)
VHH: QVQLVETGGGLVQPGGSLRLSCAASGFVFSINPMNWYRQAPGKERELVAYISMRGSTTNYADSVKGRFIISRDNAKNTLYLQMNSLKPEDTAVYYCNAPSRSVWGQGTQVTVSS
notes: as for B3
B11: VHH_(GSDMD-5) with C-terminal HA-His6 (VHH)
VHH: QVQLVETGGGLVQPGGSLRLSCAASGFVFSINPMNWYRQAPGKERELVAYISMRGSTTNYADSVKGRFIISRDNAKNTLYLQMNSLKPEDTAVYYCNAPSRSVWGQGTQVTVSS
notes: as for B1
B12: VHH_(GSDMD-4) with C-terminal HA-His6 (VHH)
VHH: QVQLVESGGGLVQPGGSLRLSCAASGFTLDRHAIAWFRQAPGLEREGVVCTSSSGAITNTADSVKGRFTISRDDAKNTVYLQMNSLKPEDTAIYYCAVRELWTVQPICEPRPRAYAYWGQGTQVTVSS
notes: as for B1

What was measured:
His-SUMO-GSDMD = target: T1, His-SUMO-GSDMD (Homo sapiens, UniProt P57764); assay: ELISA; SUMO-GSDMD or SUMO in PBS immobilised on ELISA plates at 1 μg/mL overnight; HA-tagged nanobodies in 10% FBS/PBS, 10-fold dilution series from 100 nM to 1 pM; detected with anti-HA HRP and TMB; settings: both partners purified
T1 construct: human gasdermin D (GSDMD), expressed from pET28 as His-SUMO-GSDMD; the recombinant protein is called full-length in the results; it was cleavable with the SUMO protease ULP1; also called gasdermin D; source: E. coli LOBSTR, purified (Ni-NTA, gel filtration); not shown: SUMO, N-terminal, kept

[1] = target: T2, GSDMD^NT (N-terminal domain of gasdermin D released by caspase cleavage) (Homo sapiens (endogenous, THP-1), UniProt P57764); assay: non-reducing SDS-PAGE and immunoblot; PMA-differentiated THP-1 macrophages expressing HA-tagged nanobodies, stimulated with MxiH for 1 h; lysates in SDS-PAGE buffer without reducing agent; immunoblot with anti-GSDMD; settings: partners not purified
T2 construct: also called processed GSDMD^NT; source: endogenous, lysate of PMA-differentiated THP-1 macrophages stimulated with MxiH

[2] = target: T3, human GSDMD-Renilla luciferase fusion (Homo sapiens, UniProt P57764); assay: co-IP; LUMIER assay: HEK293T co-transfected with VHH-HA and Renilla luciferase fusions; lysis in 50 mM Hepes-KOH pH 7.9, 150 mM NaCl, 2 mM EDTA, 0.5% Triton X-100, 5% glycerol; VHH-HA captured on anti-HA-coated plates for one hour; luminescence of co-purified Renilla luciferase normalised to lysate; settings: partners not purified
T3 construct: human gasdermin D (GSDMD) fused to Renilla luciferase; A GSDMD 4 A fusion was tested as well; also called Renilla-fused bait protein human GSDMD; source: HEK293T, transfected (pcDNA3.1-based vector), in lysate
T3 sequence (P57764 whole entry, the tested form may be a part): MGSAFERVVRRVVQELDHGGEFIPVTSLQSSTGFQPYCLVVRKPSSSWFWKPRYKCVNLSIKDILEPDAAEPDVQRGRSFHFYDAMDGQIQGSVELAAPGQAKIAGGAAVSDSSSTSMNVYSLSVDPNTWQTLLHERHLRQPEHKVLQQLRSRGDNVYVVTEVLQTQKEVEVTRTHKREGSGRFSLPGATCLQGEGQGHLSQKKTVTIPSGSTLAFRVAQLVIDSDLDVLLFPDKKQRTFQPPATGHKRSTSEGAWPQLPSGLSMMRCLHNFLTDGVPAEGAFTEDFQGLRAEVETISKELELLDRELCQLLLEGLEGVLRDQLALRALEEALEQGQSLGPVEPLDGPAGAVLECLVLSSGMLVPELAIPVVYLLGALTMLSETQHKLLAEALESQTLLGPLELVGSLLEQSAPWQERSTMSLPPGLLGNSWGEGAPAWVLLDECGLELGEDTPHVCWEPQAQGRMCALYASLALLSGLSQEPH

T1 sequence (P57764 whole entry): as the sequence (P57764 whole entry, the tested form may be a part) above
T2 sequence (P57764 whole entry, looked up, the tested form may be a part): as the sequence (P57764 whole entry, the tested form may be a part) above

Binder	binding result (His-SUMO-GSDMD)	binding result [2]	also measured
B1	binds	–	–
B2	–	–	binding result [1]: binds
B3	–	binds	–
B4	binds	–	–
B5	–	binds	–
B6	binds	–	–
B7	–	–	binding result [1]: binds
B8	–	binds	–
B9	binds	–	–
B10	–	binds	–
B11	binds	–	–
B12	binds	–	–
